Assay results taken from the nanobody polyreactivity screen of Harvey et al. (2022).

Assay: yeast display, Sf9 membrane polyspecificity reagent, FACS + sequencing; frameworks hold sequencing errors
Procedure, shortened: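 A nanobody's polyreactivity label depends on the gate it was sorted from. Yeast display cells were stained with 10% biotinylated, detergent-solubilized Sf9 membrane reagent for 1 hour at 4 °C, enriched on streptavidin microbeads and sorted by FACS. The low and high (top ~1%) gates were set on anti-HA fluorescence for expression and streptavidin fluorescence for reagent binding.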

Sequence | polyreactivity (PSR sort gate)
QVQRVESAAGLVQAGGSLRLSCAASGSIFWFNSMGWSRPEPGKERELVATIRYSGCSTYYADSVKGRFTISRDNAKKTVYLLMNSLKPDDTAVYYSAAVYRYSRSGYEYWGQGTQVTVSS | high polyreactivity
QVQRVESAGGLVQAGGSLRLSCAPSGRILPSNAMGWYRQAPGKERELVAGITSGGSTDYADSVKGRFTISRDNAKNTVYIQMHSLKPEDTAVYYCAADSRRYGVRFDYWGQGTQVTVSS | low polyreactivity
QVQRVESGAGLVQAGGILRLSCPASGSIFTNNPMGWSRQAPGKARELVAGISFRGSSTYADSVKGRFTISRDNAKNSVYLQMNSLNPVDPAVYYCAGDGLYWWMYYWGQGTQVTVSS | low polyreactivity
QVQRVESGGGIVQAGGTLRLSCAASLRIKDNVMGRYIQAHGKERELVAAITRSAGRTYYADSVKGRFTISRDNAKYTVYLQKNSLKPEDTALYYCAAHAERYGYEYWGQGTQVTVSS | low polyreactivity
QVQRVESGGGLFQAGGRLRLSCAASGSISLKYAMGWYRQAPGKERELVATISRGGSTNYADSVKGRFTISRDNAKNTVYIQMNSLKPEDTAVYYCAANYGRPYGTYGYWGQGTQVTVSS | high polyreactivity
QVQRVESGGGLFQAGRSLRLSCAASGSTIRRYAMGWYRQAPGKERELVAAMSRGGNTNYADSVKGRFTISRDNATNTVYLQMNCLKPEDTAVYYCAAKLYGGWYRDFAACGMDYWGQGTQVTVCS | high polyreactivity
QVQRVESGGGLLQAGRSLRLSCAASGTIFYHYAMGWYRQAPGKERELVAAMTRSGGSTYYADSVKGRFTISRDNAKNTVYLQMNSLNPEDTAVYYCAKDPDSYNFLTSNWYDYWGQGTQVTVCS | low polyreactivity
QVQRVESGGGLVQAGASLRLSCAASGSTFLTNAMGWYIQAPGKERELVAAITWSGTSTYADSVKGRFTISRDNAKNTVYLQMNSLKPEDTAVYYCIADGWYYPTDDYWGQGTQVTVSS | low polyreactivity
QVQRVESGGGLVQAGGCLRLSSAASGFIFRYNDMGWYRQAPGKERQLVATITGSGTSTYYADSVKGRFTISRDNAKTTVYLQMNSLKPEDTAVYYCAAVTSYWYWYVGYDYWGQGTQVTVSS | high polyreactivity
QVQRVESGGGLVQAGGILRLSCAASGSTFKVNVIGWYRHAPRTERDLVSAINQSGGGKYYADSVKGRFTISRDNAKNTVYLQMNSLKPEDTAVYYCAAKIFVLRYVLSQEQRRYNYWGQGTQLTVSS | low polyreactivity
QVQRVESGGGLVQAGGRLRLSSSASGSIFPTNTMGLSRQSPGKERELVAAITGSGGSRYYADSVKGRFTISRDNAKNTVYLQMNSLKPEDTAVYYCAARYRVDGVKYGYWGQGTQVTVSS | high polyreactivity
QVQRVESGGGLVQAGGSLPLSCAATGRTVRQNAMGWYGQAPGKVSELVAAISSSGTNTHYAVSVKGRFTISRDNANNTVYIVMNRLKPEDTAVYYCAADGWGARRKQYHDNGFWGTGTQVTVSS | high polyreactivity
QVQRVESGGGLVQAGGSLRISCAASGLIFYRYAMGRYRQAPGKERELVAAISKRGTSTYYADSVKGRFTISRDNAKNTVYLQMNSLKPEDTAVYYCAADVQEEYDYWGLGTQVTVSS | high polyreactivity
QVQRVESGGGLVQAGGSLRLRCAASGFIFWLYAMGWYRQAPAKERELVAAISNGGSTNYADSVKGRFTISRDNAKNTVYLQMNSLKPEDTAVYYCAAKFPRRYYWYDYWGQGTQVTVSS | high polyreactivity
QVQRVESGGGLVQAGGSLRLSCAACGLTFRQYAMVWYRQAPGKERELVAAIRSRGGSTYYADSVKGRFTISRDNAKNTVYFQMNSLKPEDTAVYYCAAGGRGWWLYRYNFFSEMDYWGQGTQVTVSS | high polyreactivity
QVQRVESGGGLVQAGGSLRLSCAASGFIFEGNAMGWYRQAPGKERELVAAISWSGGRTFYADSVKGRFTISRDHAKNTVYLQMNSLKPEDTAVYYCAAQGRRYGYGDFYYWGQGTQVTVSS | high polyreactivity
QVQRVESGGGLVQAGGSLRLSCAASGFIFETYAMGWYRQAPGKERELVAAISWRTGRTYYADSVKGRFTISRDNAKNTVYLQMNSLKPEDTAVYYCNADYGGTSTLKDFDYWGQGTQVTVSS | low polyreactivity
QVQRVESGGGLVQAGGSLRLSCAASGFIFGRYAMGWYRQAPGKERELVAASTWGGDSTYYADSVKGRFTISRDNAKNTVYLQMNSLKPEDTAVYYCAAYPQRRFYWQYRYDYWGQGTQVTVSS | high polyreactivity
QVQRVESGGGLVQAGGSLRLSCAASGFIFIRNAMGWYRQAPGKERELVAAISSGGRTYYADSVKGRFTISRDNAKNTVYLQMNSLQPEDTAVYYCATRPHRPRGHSVGQYDYWGQGTQVTVSS | high polyreactivity
QVQRVESGGGLVQAGGSLRLSCAASGFTFDRYAMGWYRQAPGKERELVAAISRSGGSTHYADSVKGRFTISRDNAKNTVYLQMNSLKPEDTAVYYCAKVYAPITALYFPTDRGDYCGQGTQVTVSS | high polyreactivity
QVQRVESGGGLVQAGGSLRLSCAASGFTFRAYTMGWYRQAPGKDRELVAAITYSGGRRYYADSVKGRFTISRDNAKTTVYLQMNSLNPEDTAVYYCAKRGWALSEYYYWGQGTQVTVSS | high polyreactivity
QVQRVESGGGLVQAGGSLRLSCAASGFTFVEYAMGWYRQAPGKERELVAAISVSGGSTYYADSVKGRFTISRDNAKNTVYLQMNSLKPEDTAVYYCNATGYQVGSITIYDYWGQGSQVTVSS | low polyreactivity

Sequence | polyreactivity (PSR sort gate)
QVQRVESGGGLVQAGGSLRLSCAASGFTLDYYTMGWYRQAPGKERELVAAISWIGTSTYYADSVKGRFTISRDNAKNTVYIQMNSLKPEDTAVYYCAAVGASVDDYYWGQGSQVTVSS | high polyreactivity
QVQRVESGGGLVQAGGSLRLSCAASGITFDRYAMGWYRQAPGKETELVAAISSGGRTNYADSVKGRFTISRDNAKNTVYLQMNSLKPEDTEVYYCSKRRARSGQDYDYWGQGTQVTVSS | low polyreactivity
QVQRVESGGGLVQAGGSLRLSCAASGITFGIYVMGWYRQAPGKETELVATISRSDDNTYYADSVKGRFTISRDNAKNTVYLQMNSLKPEDTAVYYCAADGVISAWYSSRDDYWGQGTQVTVSS | low polyreactivity
QVQRVESGGGLVQAGGSLRLSCAASGITFWPYAMGWYRQAPGKERELVAAIRASVGRTYYADSVKGRFTISRDNAKNTVYLQMNSLKPEDTAVYYCNAYGRYGKFRVEYDYWGQGTQVTVSS | low polyreactivity
QVQRVESGGGLVQAGGSLRLSCAASGLIFRKYAMGWYRQEPGKERELVAAISLRGVSTYYADSVKGRFTISRDNAKNTVYLQMNRLKPEDTAVYYCAADVYYPLGYGLDYWGQGYQVTVSS | low polyreactivity
QVQRVESGGGLVQAGGSLRLSCAASGLILVPNTMGWYRQAPGKVRELVAAISYSGGGTYYADAVKGRFTISRDNAKNTVYLQMNSLKPEETAVYDCAAYVKRESAPYGYWGQGTQVTVSS | low polyreactivity
QVQRVESGGGLVQAGGSLRLSCAASGNTFKYNTMGWYRQAPGTERELVAAISSGGNTKYADSVKGRFTISRDNGKNTDYFQMNSLKPEDTAVNYCATTFPRKGRFRYDYWGQGTQVTVSS | high polyreactivity
QVQRVESGGGLVQAGGSLRLSCAASGNTFYGYTMGWYRQAPGKERELVAAISGRGGSTTYADSVKGRFTISRDNEKNTVYCQMNSLKPEDTAVYDCAANSVYIRTRFYYWGQGTQETVSS | high polyreactivity
QVQRVESGGGLVQAGGSLRLSCAASGRIFGLNAMGWYRQAPGKERELVAAIDRSGASTYYADSVKGRFTISRDNAKNTVYLQMNSLKPEDSAVYYCAARIRTSDRRYYLGQGTQVTVSS | high polyreactivity
QVQRVESGGGLVQAGGSLRLSCAASGRIFRYYAMGWYRQAPGKERELVAAISRSSGSTYYADSVKGRFTISRDNAKNTVYLQMNSLKPEDTAVYYCATAFYSYGRYPQSYYWGQGTQVTVSS | high polyreactivity
QVQRVESGGGLVQAGGSLRLSCAASGRIFVAYVMGWYRQAPGKERELVAAITRSGGRTYYADSVKGRFTISRDNAKNTVYLQMNSLKPEDTAVYYCATDSGWSTYDYWGQGTQVSVSS | high polyreactivity
QVQRVESGGGLVQAGGSLRLSCAASGRTFPPYAMGWYRQAPGKERELVASIRRGGSTHYADSVKGRFTISRDNAKNTVYLQMNSLKPEDTAVYYCNADVIFGYTHYNYWGQGTQVTVSS | high polyreactivity
QVQRVESGGGLVQAGGSLRLSCAASGRTFVFYDMGWYRQAPGKERELVAAITSSGGRTYYADSVKGRFTISRDNAKNTVYLQMYRVKPEDTAVYYCAAPYYPYKYDSWGQGTQVTVSS | low polyreactivity
QVQRVESGGGLVQAGGSLRLSCAASGSIFGVYTRGWYRQAPGKESELVAAITSAGSTYADSVKGRFTISRDNAKNTVYLQMNSLKPEDTAVYYCAAGFHKRVTPEILYDYWGQGTQVTVSS | low polyreactivity
QVQRVESGGGLVQAGGSLRLSCAASGSIFRFYAMGWYRQARGKERELVAAITSGGSTNYADSVKGRFTISRDNAKNTVFLQMKSLKPEDTAVYYFNAGLFYKPQYGYWGQGTQVTVSS | high polyreactivity
QVQRVESGGGLVQAGGSLRLSCAASGSIFSYYARGLYRQAPGNESELVAVINSGSTNYAASVKGRFTISRDNAKNTVYIHMNSLKPEDTAVYYCAADSLLYLLEQYTTAPYDYWAQGTQVTVSS | low polyreactivity
QVQRVESGGGLVQAGGSLRLSCAASGSIVQQYAMGWYRQAPGKERELVAAISYSGGTTYYADSVKGRFTISRDNAKTTVYLQMNSLKPEDTAVYYCAAYYPSGSYDYYWGQGTQVTVSS | low polyreactivity
QVQRVESGGGLVQAGGSLRLSCAASGSTFSIYAMGLYRQEPGKERELVAAISFSDDSTYYADSVKGRFTISRDNAKNTVYLQMNSLNPEDTEVYYCAAEGYWGEPFDYDGALEYWGQGTQVTVSS | high polyreactivity
QVQRVESGGGLVQAGGSLRLSCADSGGTFGSYAKGCSSQAPGQDRELVDAIDYSGADTYYADSVKGRFTISRDNAKNTVYLQMNSLKREDTAVFSCNADPLPYDGFYDYDYWGQGTQVTVSS | low polyreactivity
QVQRVESGGGLVQAGGSLRLSSAGSGSIFNIYTMGWYRQAPGKERELVAAISYGGGSTYADSVKGRLTISRDNAKNTVYLQMNSLKPEDTAVYYCNAKRTYHWRWYQYDYWGQGTQVTVSS | high polyreactivity
QVQRVESGGGLVQAGGSLRLSSASSGFTFRSYAMGWYRQEPGKERELVAVIASSGGSTYYADSVKGRFTFSRDNAKNTVYLQMNSLKPEDTAVYYCNRRPATRAYLYDYWGQGTQVTVSW | high polyreactivity
